Measurements: patent publication US7589167B2, “ZA loops of bromodomains” (J. David Gladstone Institutes, priority 2000, dated 2009)
Where a chain is given by its changes, count along the chain named. Entries after “also recorded” stand apart in the source; their conditions may differ. Read-outs that look alike come from different tables or passages of the source. Where no end group is shown, it is not given here.

How the values were obtained:
P/CAF bromodomain = biological target: T1, P/CAF bromodomain (Homo sapiens, UniProt Q92831, P804A/P805A); test: NMR ligand titration (2D 15N-/13C-HSQC chemical shift changes) of the P/CAF bromodomain; format: binding; conditions: for binding to the P/CAF bromodomain (qualitative): NMR titration, chemical shift changes
T1 construct: poly-His (N, cleaved yes); made in house; host or cells: Escherichia coli BL21(DE3)
T1 sequence (Q92831 719-832 P804A/P805A): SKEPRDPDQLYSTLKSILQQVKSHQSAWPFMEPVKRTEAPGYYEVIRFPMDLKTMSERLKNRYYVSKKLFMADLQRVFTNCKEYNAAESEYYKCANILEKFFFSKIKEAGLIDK
Method: (§1) NMR spectroscopy: All NMR spectra were acquired at 30° C. on a Bruker DRX600 or DRX500 spectrometer. The backbone assignments of the ^1H, ^13C, and ^15N resonances were achieved using deuterium-decoupled triple-resonance experiments of HNCACB and HN(CO)CACB [Yamazaki et al., J. Am. Chem. Soc. 116:11655-11666 (1994)] recorded using the uniformly ^15N/^13C-labeled and fractionally deuterated protein. The side-chain atoms were assigned from 3D HCCH-TOCSY [Clore and Gronenbom, Meth. Enzymol. 239:249-363 (1994)] and (H)C(CO)NH-TOCSY [Logan et al., J. Biolmol. NMR 3:225-231 (1993)] data collected on the uniformly ^15N/^13C-labeled protein. Stereospecific assignments of methyl groups of the Val and Leu residues were obtained using a fractionally ^13C-labeled sample [Neri et al., Biochemistry 28:7510-7516 (1989)]. The NOE-derived distance restraints were obtained from ^15N- or ^13C-edited 3D NOESY spectra. φ-angle restraints were determined based on the ^3JHn,Hα coupling constants measured in a 3D H spectrum [Clore and Gronenbom, Meth. Enzymol. 239:249-363 (1994)]. Slowly exchanging amide protons were identified from a series of 2D ^15N-HSQC spectra recorded after the H2O buffer was changed to a ^2H2O buffer. The intermolecular NOEs used in defining the structure of the bromodomain/Ac-histamine complex were detected in ^13C-edited (F1), ^13C/^15N-filtered (F3) 3D NOESY spectrum [Clore and Gronenbom, Meth. Enzymol. 239:249-363 (1994)]. All NMR spectra were processed with the NMRPipe/NMRDraw programs and analyzed using NMRView [Johnson and Blevins, J. Biomol., NMR 4:603-614 (1994)].
(§2) Ligand titration: Ligand titration experiments were performed by recording a series of 2D ^15N—- and ^13C-HSQC spectra on the uniformly ^15N-, and ^15N/^13C-labelled bromodomain (˜0.3 mM), respectively, in the presence of different amounts of ligand concentration ranging from 0 to approximately 2.0 mM. The protein sample and the stock solutions of the ligands were all prepared in the same aqueous buffer containing 100 mM phosphate and 5 mM perdeuterated DTT at pH 6.5.
as §1, with “the uniformly ^15N/^13C-labelled and fractionally” for “the uniformly ^15N/^13C-labeled and fractionally”, “of the valine and leucine” for “of the Val and Leu”, “valine and leucine residues were” for “Val and Leu residues were”, “3D NOESY spectra [Clore and Gronenbom, Meth. Enzymol. 239:249-363 (1994)]. φ-angle restraints” for “3D NOESY spectra. φ-angle restraints”, “on the ^3JHN,H coupling constants” for “on the ^3JHn,Hα coupling constants”, “a 3D HNHA spectrum [Clore” for “a 3D H spectrum [Clore”
Ligand titration experiments were performed by recording a series of 2D ^15N-HSQC spectra on the uniformly ^15N-labelled bromodomain (˜0.3 mM), respectively, in the presence of different amounts of ligand concentration ranging from 0 to ˜2.0 mM.

[1] = tested on: lysine-acetylated H4 peptide; test: NMR titration of wild-type and mutant P/CAF bromodomain proteins with the H4 AcK peptide; format: binding; conditions: for binding of bromodomain mutants to the lysine-acetylated H4 peptide (qualitative): NMR titration; for Kd: read-out: H4 AcK-Peptide Binding KD
Method: (§3) Site-directed mutagenesis: Mutant proteins were prepared using the QuickChange site-directed mutagenesis kit (Stratagene). The presence of appropriate mutations was confirmed by DNA sequencing.
as §2

[2] = tested on: biotinylated and lysine-acetylated Tat peptide; test: Mutational analysis: binding of P/CAF bromodomain mutant proteins to immobilized lysine-acetylated Tat peptide; design: species or system HIV-1; conditions: peptide immobilized onto streptavidin agarose
Method: Site directed mutagenesis. Site directed mutagenesis was performed on selected residues of P/CAF Bromodomain using quick-change kit (Stratagene). The mutants were confirmed by sequencing and proteins were expressed and purified as above.
Peptide binding assay. Equal amount (10 μM) of GST, GST-P/CAF bromodomain and its mutant proteins, as well as various GST-fusion bromodomains from CBP and TIF1β were incubated for at least two hours at room temperature with the N-terminal biotinylated and lysine-acetylated Tat peptide (50 μM) in a 50 mM Tris buffer of pH 7.5, containing 50 mM NaCl, 0.1% BSA and 1 mMDTT. Streptavidin agarose (10 μL) was added to mixture and the beads were washed twice in the Tris buffer with 500 mM NaCl and 0.1% NP-40. Proteins were eluted from the argarose beads in SDS buffer and separated on a 14% SDS-PAGE. The resolved proteins were transferred onto nitrocellulose membrane (Pharmacia), and the membrane was blocked overnight with 5% non-fat milk in washing buffer of 20 mM Tris, pH 7.5, plus 150 mM NaCl and 0.1% Tween-20 at 4° C. Western blotting was performed with anti-GST antibody (Sigma) and goat anti-rabbit IgG conjugated with horseradish-peroxidase (Promega) and developed by chemiluminescence. Peptide competition experiments were performed by incubating various non-biotinylated and mutant Tat peptide with the P/CAF bromodomain and the biotinylated and wild type Tat peptide. The molar ratio of the wild type and mutant Tat peptides in the mixture were kept at 1:2. The binding results were analyses by using the procedure as described above.
To identify the amino acid residues of the P/CAF bromodomain that are important for complex formation, mutant proteins were tested for binding to the biotinylated and lysine-acetylated Tat peptide that is immobilized onto streptavidin agarose (FIG. 10A). […] The results from the mutational analysis agree with the observations of intermolecular NOEs in the NMR spectra.

[3] = Structural integrity of P/CAF bromodomain mutants by 15N-HSQC spectra; format: physicochemical; design: key: ++++: as stable as the wild-type; +++: mildly destabilized; ++: moderately destabilized; −: completely unfolded; conditions: relative to wild-type
Method: as §3

[4] = tested on: Tat transactivation activity; test: Superinduction of Tat transactivation activity by P/CAF; format: cell-based, HIV-1
Source text: FIG. 7 is a bar graph of the measurement of superinduction of Tat transactivation activity by P/CAF. Tat-KK is the wild type Tat protein, and Tat-RR is the double mutant Tat carrying lysine to arginine mutations at K50 and K51 positions.

P/CAF = biological target: T2, P/CAF (Homo sapiens, UniProt Q92831); test: Western blot assay to detect P/CAF interaction with the Tat protein in cells; format: cell-based; conditions: FLAG-Tat, HA-P/CAF
T2 construct: HA; expressed in transfected cells
Source text: FIGS. 8A-8B show a western blot assay to detect P/CAF interaction with the Tat protein. Note that the protein-protein interaction was only observed with the wild type Tat but not with the Tat K50R/K51R mutant protein. The FLAG was joined to the Tat peptide, whereas the HA-tag was joined to P/CAF.

[5] = estimated from amide chemical shift changes in 15N-HSQC vs ligand concentration

T2 sequence (Q92831 whole entry): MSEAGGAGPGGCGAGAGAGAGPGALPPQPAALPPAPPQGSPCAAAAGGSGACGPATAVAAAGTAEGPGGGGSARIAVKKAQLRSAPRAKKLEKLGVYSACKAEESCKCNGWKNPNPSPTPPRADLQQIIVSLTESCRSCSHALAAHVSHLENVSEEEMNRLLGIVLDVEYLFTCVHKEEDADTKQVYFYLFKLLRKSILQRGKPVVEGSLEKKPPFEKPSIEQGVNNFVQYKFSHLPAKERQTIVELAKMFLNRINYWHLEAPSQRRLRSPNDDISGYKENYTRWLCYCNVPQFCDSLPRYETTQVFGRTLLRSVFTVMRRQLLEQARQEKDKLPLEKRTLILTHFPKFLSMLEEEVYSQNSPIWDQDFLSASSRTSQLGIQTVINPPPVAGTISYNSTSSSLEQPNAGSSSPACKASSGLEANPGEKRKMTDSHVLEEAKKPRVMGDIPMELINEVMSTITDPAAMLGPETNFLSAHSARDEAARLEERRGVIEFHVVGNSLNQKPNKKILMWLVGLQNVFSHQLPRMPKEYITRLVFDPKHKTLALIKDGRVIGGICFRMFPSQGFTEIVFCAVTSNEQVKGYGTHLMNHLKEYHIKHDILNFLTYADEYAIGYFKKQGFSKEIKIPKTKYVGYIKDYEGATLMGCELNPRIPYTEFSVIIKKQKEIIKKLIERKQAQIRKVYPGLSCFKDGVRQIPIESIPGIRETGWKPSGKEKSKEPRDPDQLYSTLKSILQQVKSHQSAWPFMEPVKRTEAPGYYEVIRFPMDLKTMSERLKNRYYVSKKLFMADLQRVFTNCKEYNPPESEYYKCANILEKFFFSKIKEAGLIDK

SYGRK(Ac)KRRQRC [Tat AcK50 peptide, SYGR-AcK-KRRQRC]
Kd (P/CAF bromodomain): ~20 µM

CC(=O)N[C@@H](CCCCN)C(=O)O [acetyl-lysine]
binding to the P/CAF bromodomain (qualitative) (P/CAF bromodomain): did not bind; also recorded: does not appear to bind

CC(=O)NCCCC[C@H](NC(=O)CNC(=O)CNC(=O)[C@H](CCCCN)NC(=O)CNC(=O)[C@H](CCCNC(=N)N)NC(=O)CNC(=O)[C@@H](N)CO)C(=O)NCC(=O)N[C@@H](CC(C)C)C(=O)NCC(=O)N[C@@H](CCCCN)C(=O)O [SGRGKGG-AcK-GLGK]
Kd (P/CAF bromodomain; estimated from NMR titration, 15N-HSQC, pH 6.5, 30° C., read-out: dissociation constant (KD)): 346 ± 54 µM

ARKSTGG-AcK-APRKQL (ARKSTGGXAPRKQL; acetyl-lysine; synthetic bromodomain peptide)
binding to the P/CAF bromodomain (qualitative) (P/CAF bromodomain): bind to the P/CAF bromodomain

QSTSRHK-AcK-LMFKTE (QSTSRHKXLMFKTE; acetyl-lysine; synthetic bromodomain peptide)
binding to the P/CAF bromodomain (qualitative) (P/CAF bromodomain): bind to the P/CAF bromodomain

ISYGR-AcK-KRRQRR
binding to the P/CAF bromodomain (qualitative) (P/CAF bromodomain): bind to the P/CAF bromodomain

CC(=O)NCCc1cnc[nH]1 [acetyl-histamine]
binding to the P/CAF bromodomain (qualitative) (P/CAF bromodomain): chemical shift perturbations with similar concentration dependence and does

CC(=O)N[C@@H](Cc1c[nH]cn1)C(=O)O [acetyl-histidine]
binding to the P/CAF bromodomain (qualitative) (P/CAF bromodomain): did not bind; also recorded: does not to bind

B1: Tyr809Ala: P/CAF bromodomain point mutant, Tyr809 to Ala (protein)
chain: T1 sequence (Q92831 719-832 P804A/P805A) with Y91A
binding of bromodomain mutants to the lysine-acetylated H4 peptide (qualitative) [1]: completely abrogated
H4 AcK-Peptide Binding KD (μM) [1, 5]: No Binding ^c
binding of alanine point mutants to the Tat AcK50 peptide (qualitative) [2]: nearly complete loss or significantly reduced binding
Structural Integrity [3]: ++++

B2: Val752Ala (protein)
chain: T1 sequence (Q92831 719-832 P804A/P805A) with V34A
binding of bromodomain mutants to the lysine-acetylated H4 peptide (qualitative) [1]: significantly reduced ligand binding affinity
Kd [1, 5]: > 10000 µM
binding of alanine point mutants to the Tat AcK50 peptide (qualitative) [2]: nearly complete loss or significantly reduced binding
Structural Integrity [3]: ++

B3: Tyr802Ala: P/CAF bromodomain point mutant, Tyr802 to Ala (protein)
chain: T1 sequence (Q92831 719-832 P804A/P805A) with Y84A
binding of bromodomain mutants to the lysine-acetylated H4 peptide (qualitative) [1]: significantly reduced ligand binding affinity
Kd [1, 5]: > 10000 µM
binding of alanine point mutants to the Tat AcK50 peptide (qualitative) [2]: nearly complete loss or significantly reduced binding
Structural Integrity [3]: +++

B4: Wild-Type: wild-type bromodomain of P/CAF (residues 719-832 of SEQ ID NO:2) (protein, listed as Homo sapiens)
chain: T1 sequence (Q92831 719-832 P804A/P805A)
Kd [1, 5]: 346 ± 54 µM
Structural Integrity [3]: ++++

B5: Tyr760Ala: P/CAF bromodomain point mutant, Tyr760 to Ala (protein)
chain: T1 sequence (Q92831 719-832 P804A/P805A) with Y42A
binding of bromodomain mutants to the lysine-acetylated H4 peptide (qualitative) [1]: significantly reduced ligand binding affinity
Kd [1, 5]: > 10000 µM
Structural Integrity [3]: +++

B6: Tat: wild type HIV-1 Tat protein (SEQ ID NO:45) (protein)
chain: MEPVDPRLEPWKHPGSQPKTASNNCYCKRCCLHCQVCFTKKGLGISYGRKKRRQRRRAPQDSKTHQVSLSKQPASQPRGDPTGPKESKKKVERETETDPED
modifications: Human immunodeficiency virus type 1; Tat protein
increase of Tat transactivation activity upon P/CAF stimulation [4]: ≤ 30 fold
specific interaction with P/CAF in cells (P/CAF): detected
